Publication PMC11931385, “Structural and functional analysis of cancer-associated missense variants in the retinoblastoma protein pocket domain” (The Journal of Biological Chemistry, 2025)
No end group written: not given here. TMR = tetramethyl rhodamine dye

T1: Rb^P V654L (human, UniProt P06400 380-788, V654L)
T1 construct: also called variant 47
T1 sequence (looked up): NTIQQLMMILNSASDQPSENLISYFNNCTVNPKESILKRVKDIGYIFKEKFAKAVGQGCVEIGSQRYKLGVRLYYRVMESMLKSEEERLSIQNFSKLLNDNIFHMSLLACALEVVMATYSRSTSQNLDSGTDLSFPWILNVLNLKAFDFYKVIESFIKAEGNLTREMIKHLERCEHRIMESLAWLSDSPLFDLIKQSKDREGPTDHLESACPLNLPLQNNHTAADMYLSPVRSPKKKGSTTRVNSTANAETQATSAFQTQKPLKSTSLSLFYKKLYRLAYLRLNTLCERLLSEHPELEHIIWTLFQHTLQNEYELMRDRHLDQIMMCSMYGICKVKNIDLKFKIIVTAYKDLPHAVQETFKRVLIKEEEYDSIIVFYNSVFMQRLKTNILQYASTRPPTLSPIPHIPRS

T2: Rb^P R656W (human, UniProt P06400 380-788, R656W)
T2 construct: also called variant 49
T2 sequence (looked up): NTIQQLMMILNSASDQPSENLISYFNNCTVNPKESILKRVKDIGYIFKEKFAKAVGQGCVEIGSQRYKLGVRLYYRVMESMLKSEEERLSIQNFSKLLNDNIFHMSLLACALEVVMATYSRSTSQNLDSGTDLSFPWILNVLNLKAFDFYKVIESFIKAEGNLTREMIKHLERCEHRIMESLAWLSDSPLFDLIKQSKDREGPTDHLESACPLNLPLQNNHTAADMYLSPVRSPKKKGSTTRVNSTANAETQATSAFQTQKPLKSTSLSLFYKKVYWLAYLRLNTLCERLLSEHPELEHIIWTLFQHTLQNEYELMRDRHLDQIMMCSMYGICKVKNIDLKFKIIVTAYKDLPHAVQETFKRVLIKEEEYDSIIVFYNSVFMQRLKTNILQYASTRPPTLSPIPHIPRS

T3: Rb^P R668C (human, UniProt P06400 380-788, R668C)
T3 construct: also called variant 51
T3 sequence (looked up): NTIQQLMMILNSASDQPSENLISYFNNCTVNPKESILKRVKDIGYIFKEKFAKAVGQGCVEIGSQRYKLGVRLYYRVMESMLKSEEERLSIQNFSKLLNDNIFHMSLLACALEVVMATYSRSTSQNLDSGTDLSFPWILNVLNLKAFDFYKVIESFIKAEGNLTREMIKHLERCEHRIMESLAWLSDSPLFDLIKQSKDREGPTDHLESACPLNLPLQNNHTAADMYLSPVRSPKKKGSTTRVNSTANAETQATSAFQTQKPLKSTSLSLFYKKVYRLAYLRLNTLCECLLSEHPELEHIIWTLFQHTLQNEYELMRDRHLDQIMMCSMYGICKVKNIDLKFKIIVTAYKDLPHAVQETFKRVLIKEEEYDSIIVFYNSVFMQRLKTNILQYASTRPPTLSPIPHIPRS

T4: Rb^P M695I (human, UniProt P06400 380-788, M695I)
T4 construct: also called variant 61
T4 sequence (looked up): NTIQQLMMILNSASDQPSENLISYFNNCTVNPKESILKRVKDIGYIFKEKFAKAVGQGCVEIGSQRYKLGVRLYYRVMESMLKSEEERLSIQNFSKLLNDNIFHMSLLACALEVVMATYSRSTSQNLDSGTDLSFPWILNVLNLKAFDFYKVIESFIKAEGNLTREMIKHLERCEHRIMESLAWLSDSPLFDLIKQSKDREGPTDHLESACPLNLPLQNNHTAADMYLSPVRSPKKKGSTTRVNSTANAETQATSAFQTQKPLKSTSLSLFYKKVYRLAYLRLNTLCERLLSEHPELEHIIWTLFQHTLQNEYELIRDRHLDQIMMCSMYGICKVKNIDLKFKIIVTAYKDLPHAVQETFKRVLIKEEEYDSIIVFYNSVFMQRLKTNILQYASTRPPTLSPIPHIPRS

T5: Rb^P S751Y (human, UniProt P06400 380-788, S751Y)
T5 construct: also called variant 72
T5 sequence (looked up): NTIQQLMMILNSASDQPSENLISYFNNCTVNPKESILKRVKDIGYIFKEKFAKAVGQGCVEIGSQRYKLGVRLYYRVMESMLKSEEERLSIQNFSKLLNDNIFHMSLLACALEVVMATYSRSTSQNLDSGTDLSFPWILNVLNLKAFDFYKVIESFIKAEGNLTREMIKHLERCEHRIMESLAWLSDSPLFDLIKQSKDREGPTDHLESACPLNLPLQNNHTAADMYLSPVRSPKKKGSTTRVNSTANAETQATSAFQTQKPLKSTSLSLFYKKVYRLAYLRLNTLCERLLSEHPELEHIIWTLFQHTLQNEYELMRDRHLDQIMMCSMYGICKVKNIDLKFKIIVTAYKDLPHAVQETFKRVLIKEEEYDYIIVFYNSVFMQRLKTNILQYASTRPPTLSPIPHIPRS


Experiments:
Experiment in all cases: fluorescence polarisation; 37 °C, after the 25 °C reading ramped over 7 min to 37 °C and 2 min incubation; unlabeled Rb^P against 1.5 nM TMR-E2F1^TD or 7.5 nM TMR-E7^LxCxE; 25 mM Tris pH 8.0, 200 mM NaCl, 1 mM DTT, 0.1% Tween-20; apparent Kd
Conditions in all cases: both partners purified
Rb^P V654L = target: T1, Rb^P V654L
Rb^P R656W = target: T2, Rb^P R656W
Rb^P R668C = target: T3, Rb^P R668C
Rb^P M695I = target: T4, Rb^P M695I
Rb^P S751Y = target: T5, Rb^P S751Y

Binder | Kd (Rb^P V654L) [µM] | Kd (Rb^P R656W) [µM] | Kd (Rb^P R668C) [µM] | Kd (Rb^P M695I) [µM] | Kd (Rb^P S751Y) [µM]
{TMR}-GEGIRDLFDCDFGDLTPLD (also called E2F^TD; source: synthetic peptide, bought: GenScript) [TMR-E2F1^TD, peptide of the E2F1 transactivation domain] | 0.03 | 0.077 | 0.025 | 0.165 | 0.127
DLYCYEQLN (also: TMR label, position not given here, source: synthetic peptide, bought: GenScript) [TMR-E7^LxCxE, LxCxE peptide of the E7 oncoprotein from HPV] | 0.021 | 0.019 | 0.016 | 0.093 | 0.42
